This is an account of results in CN115141281A (dated 2022).

In the test the target is T1, 人环氧合酶-2(COX-2) (human, UniProt P35354 18-604, limits assumed).
T1 construct: also called 人COX-2; 重组人COX2
T1 sequence (looked up): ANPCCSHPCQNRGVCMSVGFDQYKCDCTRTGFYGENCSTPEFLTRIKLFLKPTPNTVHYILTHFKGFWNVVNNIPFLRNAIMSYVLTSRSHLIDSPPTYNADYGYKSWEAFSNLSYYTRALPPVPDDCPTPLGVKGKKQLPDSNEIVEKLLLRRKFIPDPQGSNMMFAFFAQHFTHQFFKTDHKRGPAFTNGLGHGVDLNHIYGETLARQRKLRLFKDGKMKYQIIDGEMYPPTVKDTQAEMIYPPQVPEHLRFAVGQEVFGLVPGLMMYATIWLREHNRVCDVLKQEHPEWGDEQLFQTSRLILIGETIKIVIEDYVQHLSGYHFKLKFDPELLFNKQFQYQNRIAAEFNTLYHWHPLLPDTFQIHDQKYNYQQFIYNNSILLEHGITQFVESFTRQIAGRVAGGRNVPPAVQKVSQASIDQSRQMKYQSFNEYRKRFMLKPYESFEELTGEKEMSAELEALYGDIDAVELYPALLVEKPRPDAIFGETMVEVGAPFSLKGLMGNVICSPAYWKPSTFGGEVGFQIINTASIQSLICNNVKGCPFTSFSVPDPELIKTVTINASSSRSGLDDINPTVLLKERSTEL
Nature of the test: BLI, antibody (25 nM) loaded on AHC sensor, two-fold dilutions of human COX-2 in solution.

B1: COX-2-HM4E6单克隆抗体 (antibody, V domains shown)
VH: EVQLEESATELARPGASVKLSCKASGYIFSVLMILWIKQRPGQGLEWIGLCKMLIPNFNMRHALFGKATLTADKSSSTAYMQLSSLASEDSAVYYCAGFIDNIWYWGLGTTLAVSS
VL: DIVITQRPALMAASPGEKVTITCQDSGNVYRNEKPWYQQKSGISPKPWIYYATHFTKGVPARFSGSGSGTSYSLTITSMEAEDAATYYCTFGCKHFDHFGAGTKLELK
Regarding B1, the Kd is 0.696 nM.
